PMC1500868 (Nucleic Acids Research, 2006)

Target: T1, GST-SAP30L (human, UniProt Q9HAJ7 1-183)
T1 sequence (looked up): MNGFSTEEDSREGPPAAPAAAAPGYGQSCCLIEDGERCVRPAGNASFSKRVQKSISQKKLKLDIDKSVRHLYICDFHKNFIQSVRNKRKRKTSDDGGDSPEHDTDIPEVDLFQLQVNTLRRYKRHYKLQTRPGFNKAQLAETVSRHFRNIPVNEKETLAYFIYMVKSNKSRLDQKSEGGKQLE
Assay: pull-down

fold change of interaction against full-length SAP30L: > 2 fold
B1: in vitro translated N-terminally deleted SAP30L (SAP30L 61–183) (domain or fragment, human, UniProt Q9HAJ7 61-183, looked up)
chain: KLDIDKSVRHLYICDFHKNFIQSVRNKRKRKTSDDGGDSPEHDTDIPEVDLFQLQVNTLRRYKRHYKLQTRPGFNKAQLAETVSRHFRNIPVNEKETLAYFIYMVKSNKSRLDQKSEGGKQLE
modifications: 35S-methionine label
